Results on 1 molecule are retold here after paper PMC10303109 (Molecules, 2023).

This assay concerns the target receptor-binding domain (RBD) of the wild-type SARS-CoV-2 spike protein (319-541 aa) (SARS-CoV-2, UniProt P0DTC2). As to the kind of experiment: cryo-EM structure. As to conditions: both partners purified.

B1: Fab domain of the antibody REGN10987 (Fab, V domains shown)
VH: QVQLVESGGGVVQPGRSLRLSCAASGFTFSNYAMYWVRQAPGKGLEWVAVISYDGSNKYYADSVKGRFTISRDNSKNTLYLQMNSLRTEDTAVYYCASGSDYGDYLLVYWGQGTLVTVSS
VL: QSALTQPASVSGSPGQSITISCTGTSSDVGGYNYVSWYQQHPGKAPKLMIYDVSKRPSGVSNRFSGSKSGNTASLTISGLQSEDEADYYCNSLTSISTWVFGGGTKLTVL
B1: the binding result is on record as “binds”.
